Measurements as given in article PMC7725785, “TRIB3 promotes MYC-associated lymphoma development through suppression of UBE3B-mediated MYC degradation” (Nature Communications, 2020).
Where no end group is shown, it is not given here. [ ]: non-standard residue; d: D form.

T1: UBE3B (His-tagged), recombinant (human, UniProt Q7Z3V4 1-1068)
T1 construct: recombinant UBE3B; also called purified UBE3B; source: Freestyle 293-F cells, transient transfection, purified (Ni-NTA, Superdex 200)
T1 sequence (looked up): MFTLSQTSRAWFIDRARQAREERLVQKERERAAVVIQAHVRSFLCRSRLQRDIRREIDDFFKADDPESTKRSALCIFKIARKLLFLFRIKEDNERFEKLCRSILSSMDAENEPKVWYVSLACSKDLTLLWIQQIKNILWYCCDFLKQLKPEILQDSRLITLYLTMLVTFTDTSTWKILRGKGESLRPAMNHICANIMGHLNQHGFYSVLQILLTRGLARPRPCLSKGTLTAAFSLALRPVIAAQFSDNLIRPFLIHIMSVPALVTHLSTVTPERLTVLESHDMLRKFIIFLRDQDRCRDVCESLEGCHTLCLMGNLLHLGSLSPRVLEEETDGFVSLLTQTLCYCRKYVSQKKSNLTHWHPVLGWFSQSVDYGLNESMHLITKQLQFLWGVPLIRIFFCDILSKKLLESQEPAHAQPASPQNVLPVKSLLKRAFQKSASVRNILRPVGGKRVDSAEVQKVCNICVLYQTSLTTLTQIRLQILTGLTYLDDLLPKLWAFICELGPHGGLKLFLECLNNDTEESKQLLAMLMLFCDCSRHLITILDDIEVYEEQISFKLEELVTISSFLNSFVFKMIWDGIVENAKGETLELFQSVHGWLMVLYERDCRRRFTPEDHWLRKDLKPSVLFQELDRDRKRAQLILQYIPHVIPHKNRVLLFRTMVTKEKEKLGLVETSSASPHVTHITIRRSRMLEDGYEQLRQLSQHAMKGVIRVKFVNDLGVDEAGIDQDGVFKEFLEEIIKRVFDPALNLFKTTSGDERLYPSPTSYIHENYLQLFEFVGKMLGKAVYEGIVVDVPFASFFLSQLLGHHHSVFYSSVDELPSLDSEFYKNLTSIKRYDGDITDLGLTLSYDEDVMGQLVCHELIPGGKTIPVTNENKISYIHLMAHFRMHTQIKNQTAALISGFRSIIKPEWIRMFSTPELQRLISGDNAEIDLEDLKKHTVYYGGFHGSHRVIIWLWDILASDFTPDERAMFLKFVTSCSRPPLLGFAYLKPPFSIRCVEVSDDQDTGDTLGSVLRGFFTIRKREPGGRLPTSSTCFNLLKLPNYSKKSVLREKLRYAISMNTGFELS

T2: GST-tagged TRIB3 (human, UniProt Q96RU7 1-358)
T2 construct: purified recombinant TRIB3; also called TRIB3-GST; TRIB3 protein; source: bought: Sinobiological (10731-H09B), purified
T2 sequence (looked up): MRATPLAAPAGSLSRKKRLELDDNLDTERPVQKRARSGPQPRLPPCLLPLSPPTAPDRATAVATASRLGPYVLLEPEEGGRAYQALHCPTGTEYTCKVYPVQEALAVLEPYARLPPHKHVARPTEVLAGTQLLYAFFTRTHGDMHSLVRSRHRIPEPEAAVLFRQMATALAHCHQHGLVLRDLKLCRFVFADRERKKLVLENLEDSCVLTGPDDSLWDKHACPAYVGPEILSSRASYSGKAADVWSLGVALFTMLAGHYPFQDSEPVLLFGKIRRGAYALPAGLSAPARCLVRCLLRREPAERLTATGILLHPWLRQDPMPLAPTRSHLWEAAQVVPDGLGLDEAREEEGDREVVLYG


Key:
[1] = biological target: T1, UBE3B (His-tagged), recombinant; test: co-IP; in vitro co-IP: purified His-tagged UBCH3 (5 μg) and His-tagged UBE3B (5 μg) with GST-tagged TRIB3 or the KD(C) domain; 1% NP-40, 120 mM NaCl, 40 mM tris-HCl pH 7.4, 6 h at 4 °C; conditions: both partners purified
[2] = biological target: T2, GST-tagged TRIB3; test: SPR; BIAcore T200; TRIB3 immobilised directly on a CM5 chip; 0–200 nM peptide passed over; HBS-EP pH 7.4, 25 °C, 25 μl/min; conditions: both partners purified

binding result [1] | Kd [2] [nM] | Binder
binds | – | purified His-tagged UBCH3 (enzyme, UniProt P49427 1-236, looked up, UBCH3 (CDC34), purified; also called UBCH3 (E2); UHCH3) MARPLVPSSQKALLLELKGLQEEPVEGFRVTLVDEGDLYNWEVAIFGPPNTYYEGGYFKARLKFPIDYPYSPPAFRFLTKMWHPNIYETGDVCISILHPPVDDPQSGELPSERWNPTQNVRTILLSVISLLNEPNTFSPANVDASVMYRKWKESKGKDREYTDIIRKQVLGTKVDAERDGVKVPTTLAEYCVKTKAPAPDEGSDLFYDDYYEDGEVEEEADSCFGDDEDDSGTEES
– | 76.4 | [dK][dR][dR][dE][dQ][dL][dK][dH][dK][dL][dE][dQ][dL][dR] (α-helical peptide derived from the C terminus of MYC; source: synthetic peptide (Chinese Peptide Inc., >98% purity)) [CM4 peptide]
